Data set [1] relates to HEK293-RhoA/NgR/p75 cells. The data set can be described thus: ACR (actin cytoskeletal rearrangement) assay with image analysis. It counts as cell-based, human. Here is the method:
1×10^4 cells were transferred into microtiter plates with 96 wells two days before the stimulation. The cells were stimulated with a suitable reagent (e.g. LPA or AP-Nogo-66) in culture medium (RPMI-Glutamax) comprising 5% FCS. After a stimulation period of 5 to 10 minutes, the activation was stopped with cold PBS. The cells were fixed with 3-4% strength paraformaldehyde solution, permeabilized with PBS comprising 0.2% Triton X-100, and incubated with phalloidin Alexa 568 or 488 for 30-45 minutes. Incubation with DAPI additionally took place for 5 minutes for nuclear staining. The cells were visualized with the aid of an epifluorescence microscope (Axiovert 25). Fluorescence micrograms were recorded using a cooled Zeiss CCD camera.
HEK293-Rho/NgR/p75 cells were transferred into microtiter plates with 96 wells (Biocoat Poly D-Lysine Black Clear Plates from Becton Dickinson, Heidelberg, order number 356640). After a starvation period (cf. above) of 2 hours, the cells were preincubated with PI-PLC (1 U/ml) for 30 minutes or not treated. The cells were subsequently stimulated with LPA or AP-Nogo-66 or remained unstimulated. Fluorescence micrograms were obtained as described above. Representative appearances are depicted in FIG. 5b.
Fluorescence micrograms (FIG. 6a) obtained from an ACR assay carried out according to the invention (stimulation of HEK293-RhoA/NgR/p75 cells with 10 μg/ml AP-Nogo-66) were investigated with various high content screening systems, e.g. with the Atto Pathway HT image analysis system from BD Bioimages (Becton Dickinson) or the Discovery 1 from Molecular Devices, for changes in the cell morphology. […] The Pathway HT was used to determine the number of so-called cytoplasmic vertices (cytoplasmic vertices are a measure of changes in the cytoskeleton which describes inter alia the contraction of actin filaments and the formation of stress fibers). The result of this evaluation is depicted in FIG. 6c.
To analyze the reported morphological changes, 1×10^4 cells per well were seeded into 96-well plates, fixed, the actin filaments were stained with FITC-labelled Alexa Phalloidin and the nuclei were visualized with DAPI. The plates were subjected to our high-content screening (HCS) system, the Pathway HT (Becton Dickinson) and the corresponding image analysis software Attovision. Analyzing the perimeter of the actin cytoskeleton achieved the most significant difference when comparing stimulated with unstimulated samples. The perimeter of the actin cytoskeleton is calculated as “cytoplasmic verticies”, which is a measure for the number of turns or changes in direction that lines outlining the cell follow.

Data set [2] concerns the target human Nogo receptor (hNgR) (human) (UniProt Q9BZR6). Put plainly: cell-based or functional assay.
The subject of a further data set is Rho. Put plainly: RBD assay (pulldown of GTP-bound Rho with GST-RBD beads, immunoblot). It counts as cell-based, human. As to the method: The HEK cells either remained unstimulated or were stimulated (e.g. with LPA or AP-Nogo-66) for a period of from 5 to 10 minutes after a 2-hour starvation period (by incubation with serum-free RPMI-Glutamax). HEK cells (1×10^6 per well) were cultured in 6-well plates (volume of mixture 1000 μl/well). Before the stimulation, a particular volume appropriate for the concentration of the AP-Nogo66 batch employed (e.g. 100 μl of medium was removed from each well and the volume was correspondingly made up again to 1000 μl with AP-Nogo66, to result in a defined final concentration of AP-Nogo66 on the cells. Following the stimulation, the AP-Nogo66 medium solution was completely removed by aspiration. The cells were then washed with ice-cold PBS (phosphate-buffered saline) and lyzed in 50 mM Tris, pH 7.5 (comprising NaCl (500 mM), EDTA (1 mM), MgCl2 […], 10% glycerol, NaF (5 mM), DTT (1 mM), 1% Nonidet P-40 in combination with the protease inhibitors PMSF (1 mM), leupeptin (1 μg/ml) and aprotinin (1 μg/ml)).
Cell lysates (e.g. from HEK293-RhoA and HEK293-RhoA/NgR/p75; 400 μg of total protein in each case) were incubated with 40 μg of the GST-RBD beads (comprising recombinant fusion protein composed of glutathione S-transferase and RBD with amino acids 7 to 89 of human rhotekin) at 4° C. for 1 hour. After the beads had been washed 3 times with lysis buffer, the bound protein (GTP-bound, biochemically active Rho) was analyzed by SDS-PAGE and immunoblotting. The immunoblotting was carried out with anti-Rho antibody and the visualization took place by incubation with a horseradish peroxidase-conjugated secondary antibody and chemiluminescence enhancer (ECL).
It was investigated, using the RBD assay described above, whether Rho is activated after stimulation of NgR with myelin proteins, such as Nogo-66, in HEK293-Rho cells which express NgR and p75 (HEK293-Rho/NgR/p75). The results are depicted in appended FIG. 5a.
(In general: A western blot detects proteins with antibodies after separation by electrophoresis.)

The target in another data set is T1, NgR (Homo sapiens, UniProt Q9BZR6).
T1 sequence (Q9BZR6 27-447): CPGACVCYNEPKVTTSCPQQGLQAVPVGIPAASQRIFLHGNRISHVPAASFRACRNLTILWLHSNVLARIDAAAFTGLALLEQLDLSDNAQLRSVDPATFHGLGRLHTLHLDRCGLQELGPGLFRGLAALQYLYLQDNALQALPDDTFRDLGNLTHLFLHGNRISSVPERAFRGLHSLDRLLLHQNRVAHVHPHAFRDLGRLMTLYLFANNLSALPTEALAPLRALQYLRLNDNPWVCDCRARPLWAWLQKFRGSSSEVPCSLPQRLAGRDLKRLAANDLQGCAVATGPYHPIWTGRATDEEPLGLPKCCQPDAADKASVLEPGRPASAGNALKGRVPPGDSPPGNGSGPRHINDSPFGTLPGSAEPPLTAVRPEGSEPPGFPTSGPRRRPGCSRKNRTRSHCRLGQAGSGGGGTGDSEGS
The data set can be described thus: Preliminary experiments on functional activity of tagged Nogo66 ligands. As to conditions: not shown.

[3] abbreviates: HEK293-RhoA/NgR/p75 cells, stimulated for 5 minutes.

alkaline phosphatase tag = alkaline phosphatase tag, N-terminal fusion A value given as a limit tells only on which side of the number the result lay.

In the case of `C[C@@H](N)[C@H]1CC[C@H](C(=O)Nc2ccncc2)CC1` [Y-27632, reference compound], the “inhibition of AP-Nogo66 induced Rho-dependent cell rounding and shrinkage” value in data set [1] (15 min pre-treatment before stimulation with 20 nM AP-Nogo66) is “abolished AP-Nogo66 induced Rho-dependent cell rounding and shrinkage in a dose-dependent manner”. In addition, the “IC50 for the inhibitory effect on the actin cytoskeletal rearrangement” value in data set [1] (15 min pre-treatment before stimulation with 20 nM AP-Nogo66, no number given) is on record as “ranges in the order of magnitude of what had described for this broadly used compound”.
In data set [2], “AP-Nogo66 (Nogo-66, comprising an N-terminal alkaline phosphatase Tag) (from UniProt Q9NQC3 1055-1120) (ligand)” came in with a maximal reduction of the average perimeter (cytoplasmic vertices) against untreated control cells, at 20 nM AP-Nogo66 of 80 to 90%.
“L-alpha-lysophosphatidic acid [LPA, reference compound]”: the Rho activation entry with Rho (setting [3]) was “rapid activation of Rho”; in the data set on Rho (HEK wild-type cells, LPA stimulation (data not shown)), “rapid activation of Rho”.

B1: GST-Nogo66: otherwise tagged Nogo66 (GST tag) (protein)
chain: RIYKGVIQAIQKSDEGHPFRAYLESEVAISEELVQKYSNSALGHVNCTIKELRRLFLVDDLVDSLK
modifications: not fully specified (N-terminus); also: GST tag, end not given here (dimerising)
Take B1: in the data set with NgR, the functional activity entry is “not”.

B2: AP-Nogo66: Nogo-66, comprising an N-terminal alkaline phosphatase Tag; NgR receptor ligand (protein)
chain: {alkaline phosphatase tag}-RIYKGVIQAIQKSDEGHPFRAYLESEVAISEELVQKYSNSALGHVNCTIKELRRLFLVDDLVDSLK
modifications: not fully specified
notes: Nogo-66, comprising an N-terminal alkaline phosphatase Tag; NgR receptor ligand
B2: the functional activity entry in the data set with NgR was “functionally active”. Moreover, in the data set with Rho (HEK293-RhoA/NgR/p75 cells treated with 1 U/ml PI-PLC 30 minutes before stimulation), the “Rho activation after release of NgR from the cell membrane” value was “no Rho activation”. For the same molecule, the Rho activation entry in the data set with Rho (setting [3]) is reported as “induced Rho activity”. Also, the “time to maximum of morphological changes” value in data set [1] (20 nM AP-Nogo66) is listed as 15 min. Further, the “maximal reduction of the average perimeter (cytoplasmic verticies) in comparison to untreated control cells” value in data set [1] (20 nM AP-Nogo66, 10 min stimulation, Attovision analysis) is 80-90%. Besides, the “time to morphological changes” value in data set [1] (20 nM AP-Nogo66, onset of actin cytoskeletal rearrangement) was ≤ 5 min. For the same molecule, the “morphological change of the cells after stimulation” value in data set [1] (10 μg/ml AP-Nogo-66, mean cell length and cytoplasmic vertices) is listed as “significant, optically analyzable morphological change”. Moreover, in data set [1] (PI-PLC (1 U/ml) preincubation for 30 minutes), the “morphological changes after PI-PLC treatment and stimulation” value was “not observable”.

For the origin of these results see patent US20060177816A1, “Cellular RhoGTPase activation assay” (Abbott GmbH & Co. KG., priority 2005, published 2006).
